The series concerns T1, hADAR2-R2D (Fig. 2C, Fig. S4, Table S4) E488Q (human), P78563-2.
T1 sequence: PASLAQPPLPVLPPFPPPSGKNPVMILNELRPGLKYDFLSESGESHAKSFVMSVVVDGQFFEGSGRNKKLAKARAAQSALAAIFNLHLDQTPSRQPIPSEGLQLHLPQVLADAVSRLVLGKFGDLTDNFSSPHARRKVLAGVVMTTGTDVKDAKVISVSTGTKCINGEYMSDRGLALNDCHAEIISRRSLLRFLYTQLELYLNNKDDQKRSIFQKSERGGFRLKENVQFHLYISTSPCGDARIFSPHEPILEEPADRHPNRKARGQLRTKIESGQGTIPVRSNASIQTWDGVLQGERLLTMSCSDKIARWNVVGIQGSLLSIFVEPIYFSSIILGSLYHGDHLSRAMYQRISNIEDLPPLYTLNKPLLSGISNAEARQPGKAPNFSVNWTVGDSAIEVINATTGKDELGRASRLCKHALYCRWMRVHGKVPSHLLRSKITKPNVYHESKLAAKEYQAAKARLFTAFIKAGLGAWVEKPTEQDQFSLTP
As to the kind of experiment: EMSA. As to conditions: EMSA: 20 mM Tris-HCl pH 7.0, 3.5% glycerol, 0.5% DTT, 60 mM KCl, 20 mM NaCl, 0.1 mM BME, 1.5 mM EDTA, 0.003% NP-40, 160 U/ml RNasin, 100 ug/ml BSA, 1 ug/ml …. Background: Mobility shift assays separate free from complexed probe on a gel.

[1] abbreviates: N = 8-azanebularine at top position 13.

The Kd is the free concentration of one partner at which half of the binding sites on the other are occupied at equilibrium, for simple one-to-one binding. The low end stands for tighter binding, the high end for weaker binding.

In turn, “GCAUAGCUCGCGAUGCUNGAGGGCUCUG / CAGAGCCCCCCAGCAUCGCGAGCUAUGC [hGLI1-28-5' 8AN (5' extended)]” came in with a Kd (N = 8-azanebularine at top position 18) of 1.31 nM.

In turn, “GCUCGCGAUGCUNGAGGGCUCUG / CAGAGCCCCCCAGCAUCGCGAGC [hGLI1-23 8AN]” yielded a Kd under setting [1] of 2.67 nM.

In turn, “GCUCGCGAUGCUNGAGGGCUCUGAUAGC / GCUAUCAGAGCCCCCCAGCAUCGCGAGC [hGLI1-28-3' 8AN (3' extended)]” registered a Kd under setting [1] of 1.79 nM.

Source of the values: paper PMC7641318.
